This is an account of results in US20130190246A1 (PURDUE RESEARCH FOUNDATION, published 2013).

Where no end group is shown, it is not given here. The star is where a group is joined. Dansyl = CN(C)c1cccc2c(S(=O)(=O)*)cccc12

In assay [1] the target is collagen (type and supplier not stated; Examples 11 and 12). The assay is described as follows: fluorescence plate binding assay, dansyl label, collagen coated on 96-well plate. As to the method: (§1) Binding assays were done in a 96-well high-binding plate, black with a clear bottom (Costar). Collagen was compared to untreated wells and BSA coated wells. Collagen and BSA were immobilized at 37° C. for 1 hr by incubating 90 μL/well at concentrations of 2 mg/mL in 10 mM HCl and 1×PBS, respectively. Each well was washed 3× with 1×PBS after incubating. Z-SILY was dissolved in 1×PBS at concentrations from 100 μM to 10 nM in 10-fold dilutions. Wells were incubated for 30 min at 37° C. and rinsed 3× with PBS and then filled with 90 μL of 1×PBS. Fluorescence readings were taken on an M5 Spectramax Spectrophotometer (Molecular Devices) at excitation/emission wavelengths of 335 nm/490 nm respectively.

For assay [2] the target is unchanged. The assay is described as follows: fluorescence plate assay, collagen-coated wells, binding curve from the data of FIG. 4. As for the experimental part: as §1

B1: Dansyl-GRRANAALKAGELYKSILYGC (Z-SILY) (peptide)
peptide: Dansyl-GRRANAALKAGELYKSILYGC
notes: Fluorescently labelled version of SILY; also called dansyl-modified peptide SILY
The Kd is the free concentration of one partner at which half of the binding sites on the other are occupied at equilibrium, for simple one-to-one binding. A lower Kd goes with a tighter complex. As usually defined, the EC50 (read off the curve) is the concentration giving half of the maximal effect. A low value points to an effect from little substance. Molecule B1 returned an equilibrium dissociation constant (Kd) in assay [1] of 860 nM. For the same molecule, the “EC50 (read off the curve)” value in assay [2] was around 900 nM.
